{
  "source": "paper PMC8406304",
  "about": "“Inhibiting Type VI Secretion System Activity with a Biomimetic Peptide Designed To Target the Baseplate Wedge Complex” (mBio, 2021)",
  "molecules": {"B1": {"name": "biomimetic cyclic peptide (BCP) (peptide)", "peptide": "SRPVMGSRPVMGSRPVMG", "modifications": "head-to-tail cyclization"}},
  "key": {"[1]": {"molecular_target": "Strep-tagged TssK (EAEC) (enteroaggregative Escherichia coli (EAEC) 17-2)", "test": "BLI; as a7, but 1 mM mutated BCP added to the bound TssK before 47 μM TssFGE lysate"}, "[2]": {"molecular_target": "Strep-tagged TssK (EAEC) (enteroaggregative Escherichia coli (EAEC) 17-2)", "test": "BLI; as a7, but 1 mM wild-type BCP added to the bound TssK before 47 μM TssFGE lysate"}, "[3]": {"molecular_target": "Strep-tagged TssK (EAEC) (enteroaggregative Escherichia coli (EAEC) 17-2)", "test": "BLI; as a7, but 1 mM randomized BCP added to the bound TssK before 47 μM TssFGE lysate"}, "[4]": {"molecular_target": "Strep-tagged TssK (EAEC) (enteroaggregative Escherichia coli (EAEC) 17-2)", "test": "BLI; biotinylated TssK loaded at 1.2 μM on streptavidin (SAX) biosensors, blocked with control lysate; 47 μM TssFGE lysate in kinetic buffer (PBS pH 7.3, 0.02% Tween 20, 0.1% BSA); no peptide"}, "[5]": {"system": "TssK-TssFGE (TssKFGE wedge complex)", "test": "Biolayer interferometry (BLI), TssFGE binding to biotinylated TssK", "type": "biochemical, enteroaggregative Escherichia coli (EAEC)", "details": "BLI, 47 μM TssFGE lysate, TssK preincubated with 1 mM peptide, kinetic buffer pH 7.3; mean ± SD of three independent assays", "method": "Streptavidin-tagged TssK was purified as described above. The TssK trimer was further polished by size exclusion chromatography using a Superose 6 10/300 GL (GE Healthcare) in 50 mM HEPES (pH 7.0), 150 mM NaCl at 0.25 ml/min. For biolayer interferometry (BLI) experiments, we used high-precision Strep (SAX) biosensors from Forté Bio (number 18-5117) on the BLItz machine (Forté Bio). The trimeric ligand TssK was biotinylated using equimolar N-hydroxysuccinimide (NHS)–polyethylene glycol 4 (PEG4)–biotin (Pierce EZ-Link; 21330) in 50 mM HEPES (pH 7.0), NaCl 150 mM for 1 h at room temperature before buffer exchange in CentriPure P2 (Generon; IRL) columns against 50 mM HEPES (pH 7.0), NaCl 150 mM to remove the excess biotin. BL21(DE3) cells were used to express the interacting analytes TssG-TssF-TssE. In addition, cells containing an empty plasmid were used as a control. Cells were broken as described above, and the clarified supernatants after centrifugation for 30 min at 20,000 × g contained the control and TssFGE lysate. Streptavidin biosensors were hydrated for 10 min in HEPES buffer before binding of the biotinylated TssK. Biotinylated TssK was loaded at 1.2 μM onto the SAX biosensors for 120 s, and then the excess TssK was dissociated in HEPES buffer for 120 s. For the remaining kinetic assays, we used kinetic buffer (PBS [pH 7.3] plus 0.02% Tween 20, 0.1% bovine serum albumin [BSA], 0.05% sodium azide) (Forté Bio number 18-5032) with orbital shaking at 2,200 rpm. Kinetic buffer (KB) was used to dilute the lysates and the peptide to decrease nonspecific signals. The unbound Strep sites were blocked with 2 μM control lysate for 120 s and washed with KB for 120 s. The kinetic assays were performed using three steps with different times: baseline, 30 s; association, 120 s; and dissociation, 120 s. All the following assays were performed in triplicate. […] In the first assay, we added 47 μM lysate expressing the analytes TssG, TssF, and TssE to the bound TssK. In the second assay, we added 1 mM wild-type (WT) BCP to the bound TssK before adding 47 μM TssF-TssG-TssE. In the third assay, to validate the specificity of the WT BCP we added 1 mM mutant BCP that lacks the binding residues to the bound TssK before adding 47 μM TssF-TssG-TssE. Last, to redemonstrate the specificity of the BCP-WT, we added 1 mM randomized BCP that contains the binding residues but out of order to the bound TssK before adding 47 μM TssF-TssG-TssE."}, "[6]": {"molecular_target": "TssF-Strep (EAEC) (enteroaggregative Escherichia coli (EAEC) 17-2)", "test": "pull-down; soluble extracts of E. coli BL21(DE3) producing the TssKFGE wedge complex with TssG wild type or foot variants; TssF-Strep used to pull down TssG by affinity purification; level of copurified TssG quantified"}, "[7]": {"molecular_target": "TssK-6×His (EAEC) (enteroaggregative Escherichia coli (EAEC) 17-2)", "test": "native gel or EMSA; clarified BL21(DE3) lysates on a native 4 to 16% gel, immunoblot with anti-His antibodies"}, "[8]": {"molecular_target": "Strep-tagged TssK (EAEC) (enteroaggregative Escherichia coli (EAEC) 17-2)", "test": "ITC; 25 μM TssK in the cell, 1 mM peptide in the syringe; 50 mM HEPES pH 7.0, 150 mM NaCl, 25°C; One Set of Sites model"}},
  "data": [
    {"molecule": "TssF-TssG-TssE (EAEC) (complex)", "values": [
      {"measurement": "maximum binding average response at 150 s, TssK preincubated with 1 mM mutated BCP", "setting": "[1]", "result": 0.169, "unit": "nm"},
      {"measurement": "maximum binding average response at 150 s, TssK preincubated with 1 mM wild-type BCP", "setting": "[2]", "result": 0.121, "unit": "nm"},
      {"measurement": "maximum binding average response at 150 s, TssK preincubated with 1 mM randomized BCP", "setting": "[3]", "result": 0.16, "unit": "nm"},
      {"measurement": "maximum binding average response at 150 s association", "setting": "[4]", "result": 0.189, "unit": "nm"}
    ]},
    {"molecule": "SRPVAG-SRPVAG-SRPVAG (head to tail) [mutated BCP]", "values": [
      {"measurement": "maximum binding average response of TssFGE to TssK at 150 s in presence of peptide", "setting": "[5]", "result": "0.169 ± 0.016", "unit": "nm"}
    ]},
    {"molecule": "Flag-tagged TssG with the foot 1 domain deleted (natural protein)", "values": [
      {"measurement": "amount of TssG copurified using TssF-based pulldown", "setting": "[6]", "result": 4.6, "unit": "%"}
    ]},
    {"molecule": "Flag-tagged TssG with the foot 2 domain deleted (natural protein)", "values": [
      {"measurement": "amount of TssG copurified using TssF-based pulldown", "setting": "[6]", "result": 1.1, "unit": "%"}
    ]},
    {"molecule": "Flag-tagged TssG (EAEC) (natural protein)", "values": [
      {"measurement": "amount of TssG copurified using TssF-based pulldown", "setting": "[6]", "result": 74.8, "unit": "%"}
    ]},
    {"molecule": "TssK-6×His (EAEC) (natural protein)", "values": [
      {"measurement": "stoichiometry N", "setting": "[7]", "result": 3}
    ]},
    {"molecule": "SVRMPG-SPMRVG-SMVRPG (head to tail) [randomized BCP, randomized control version (SVRMPG-SPMRVG-SMVRPG)]", "values": [
      {"measurement": "maximum binding average response of TssFGE to TssK at 150 s in presence of peptide", "setting": "[5]", "result": "0.160 ± 0.028", "unit": "nm"}
    ]},
    {"molecule": "B1", "values": [
      {"measurement": "Kd", "setting": "[8]", "result": 60, "unit": "µM"}
    ]}
  ]
}
